No end group written: not given here.

Experiment [1] addresses Duffy Antigen Receptor for Chemokines (DARC) (human) (UniProt Q16570). Description: Duffy binding.
For experiment [2], the target named is chemokine receptors.
In experiment [3] the target is Duffy Antigen Receptor for Chemokines (DARC) (human) (UniProt Q16570). The experiment can be described thus: DARC binding, Table 18.
Experiment [4] has the same target. Description: Duffy binding, against the LFL peptide.
Experiment [5] deals with CXCR4 (human) (UniProt P61073). The experiment can be described thus: not stated (printed as affinity constant).
For experiment [6], the target named is CCR5 (human) (UniProt P51681). The experiment can be described thus: not stated (printed as affinity constant).
Sequence of CCR5 (human) (P51681 whole entry): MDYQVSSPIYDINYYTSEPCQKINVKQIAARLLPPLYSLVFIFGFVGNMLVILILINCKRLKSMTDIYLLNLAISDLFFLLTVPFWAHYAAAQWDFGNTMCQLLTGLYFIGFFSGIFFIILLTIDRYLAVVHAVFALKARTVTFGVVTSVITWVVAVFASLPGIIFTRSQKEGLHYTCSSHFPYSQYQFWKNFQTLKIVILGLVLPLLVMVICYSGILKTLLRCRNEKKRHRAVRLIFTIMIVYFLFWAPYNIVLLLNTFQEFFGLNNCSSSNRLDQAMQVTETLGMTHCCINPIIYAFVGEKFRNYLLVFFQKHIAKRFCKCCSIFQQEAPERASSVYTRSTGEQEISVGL
In experiment [7] the target is T1, Duffy Antigen Receptor for Chemokines (DARC) (human), Q16570.
T1 chain: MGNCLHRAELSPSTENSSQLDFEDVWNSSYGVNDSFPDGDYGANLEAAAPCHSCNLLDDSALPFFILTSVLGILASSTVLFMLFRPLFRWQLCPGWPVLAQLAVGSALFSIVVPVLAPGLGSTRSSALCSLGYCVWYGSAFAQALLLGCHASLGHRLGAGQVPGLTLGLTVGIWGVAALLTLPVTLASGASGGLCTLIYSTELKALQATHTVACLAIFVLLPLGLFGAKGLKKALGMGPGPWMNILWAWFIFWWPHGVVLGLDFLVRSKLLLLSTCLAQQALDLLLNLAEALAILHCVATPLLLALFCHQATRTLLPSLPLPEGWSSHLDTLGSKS
Description: DARC binding.

Regarding VAEKPCKSSTIRRYS (not fully specified (some residues)) [LRD peptide 2(1-15)[MCP-1]], the Kd in experiment [1] is 25000 nM; in experiment [5], under 100 nM; in experiment [6] it was under 100 nM. Moreover, in experiment [2], the half-inhibitory concentration (IC50) turned out to be 3000 nM. The DARC binding in experiment [3] turned out to be 18 µM. Also, the fold decrease in Duffy binding against LFL in experiment [4] came out at 100 fold.

In the case of SYRRITSSKSPKEAV (not fully specified) [Ser10 variant of peptide 2(1-15)[MCP-1]], in experiment [7], the DARC binding lay in the range of 20 to 100 µM.

Usually Kd stands for the equilibrium constant for the complex coming apart. A lower Kd goes with tighter binding. Broadly, the IC50 is the concentration needed to halve the response being measured. Higher therefore signals weaker potency.
